Experimental data: US20230190701A1, “Compounds for Treating Tauopathies and Restless Leg Syndrome and Methods of Using and Screening for Same” (The United States Government as Represented, priority 2020, published 2023)

Key:
Assay type in all cases: biochemical
human PTPRD phosphatase = target: T1, human PTPRD phosphatase (Homo sapiens, UniProt P23468); test: pNPP dephosphorylation to p-nitrophenolate (405 nm); settings: FIG. 4; peptide 4×10^−4 M, pNPP 1.8×10^−5M
T1 construct: His6 (N); made in house; host or cells: E. coli (vector optimized for E. coli codon use)
T1 sequence (P23468 with tags, fused parts or gaps): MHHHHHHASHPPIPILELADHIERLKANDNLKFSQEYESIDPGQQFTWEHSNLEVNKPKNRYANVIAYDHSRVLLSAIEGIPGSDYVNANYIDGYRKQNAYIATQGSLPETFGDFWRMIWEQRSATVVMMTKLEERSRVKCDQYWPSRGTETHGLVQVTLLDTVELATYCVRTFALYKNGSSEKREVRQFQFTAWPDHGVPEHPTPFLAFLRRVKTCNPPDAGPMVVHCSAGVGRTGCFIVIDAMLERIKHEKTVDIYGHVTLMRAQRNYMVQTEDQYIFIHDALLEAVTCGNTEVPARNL
Description: pNPP dephosphorylation to p-nitrophenolate: Triplicate assays were used for human PTPRD phosphatase, pNPP substrate and spectrophotometric 405 nm detection of the dephosphorylation product of these enzyme's activities using a Spectromax plate reader. Controls used 5×10^−5M 7-BIA with 18 min incubations as described. See G. R. Uhl et al., “Cocaine reward is reduced by decreased expression of receptor-type protein tyrosine phosphatase D (PTPRD) and by a novel PTPRD antagonist.” Proc Natl Acad Sci USA 115, 11597-11602 (2018). For assays determining the effect of flavonoids on pNPP hydrolysis, a 96 well half-area plate was prepared by first filling each well to be tested with 18 μL of 50 μM pNPP and 25 μL of running buffer (43.4 μM HEPES (pH 7.4), 2.2 μM dithiothreitol, 0.44% acetylated bovine serum albumin, 22.2 μM NaCl, 4.4 μM EDTA), and 2 μL of DMSO containing the desired concentration of flavonoid and/or peptide. PTPRD1 was diluted 1:50 in a dilution buffer (22.9 μM pH 7.4 HEPES, 1% acetylated bovine serum albumin, 4.6 μM dithiothreitol). At the zero time point, 5 uL of this solution was added to each well, and the optical density was measured in 36 second intervals at 405 nm. Results were plotted and the slopes of the linear region were fit. All experiments were performed three times with three wells dedicated to each experimental condition in each experiment.

[1] = target: T2, PTPRD D1 phosphatase (SEQ ID NO: 1) (Homo sapiens, UniProt P23468); test: Orthophosphate release assay (malachite green/molybdate) with phosphopeptide substrates; settings: peptide as substrate; FIG. 1
T2 construct: His6 (N); made in house; host or cells: E. coli (vector optimized for E. coli codon use)
T2 sequence (P23468 with tags, fused parts or gaps): T1 sequence (P23468 with tags, fused parts or gaps)

[2] = target: T2, PTPRD D1 phosphatase (SEQ ID NO: 1); test: as above; settings: for normalized rates of liberation of orthophosphate from pY15CDK5 alanine substitution mutants vs wildtype: FIG. 5, Glu-substitution mutants (1, 4, 6) reductions, Lys-substitution mutants (2, 7) increases; for PTPRD's activity in dephosphorylating CDK5 phosphopeptide (positive allosteric modulation): pY15 CDK5 phosphopeptide, flavonoid 10^−4 M (FIG. 7); for PTPRD's activity in dephosphorylating CDK5 phosphopeptide (positive allosteric modulation) / PTPRD's activity in dephosphorylating GSK3 phosphopeptide (positive allosteric modulation): vs vehicle; for PTPRD's activity in dephosphorylating GSK3 phosphopeptide (positive allosteric modulation): pYGSK3 phosphopeptide, flavonoid 10^−4 M (FIG. 8)
Source text: The following examples utilized phosphatase protein produced from a His-tagged D1 phosphatase domain synthesized expression vector optimized for E. coli codon use (SEQ ID NO: 1). This protein was purified to >95% purity and was active in hydrolyzing pNPP substrate (FIG. 1). Human wildtype and mutant phospho- and dephospho-GSK3β/GSK3α and CDK5 peptides were synthesized (Pierce/ThermoFisher, SEQ ID NOs: 2-12) and control END(pY)INASL peptide (Promega, SEQ ID NO: 13) was purchased. Flavonoids were purchased from Thermo-Fisher, Aldrich, Cayman Chemical and AK Scientific. Purities were >95%.
Orthophosphate release assays (Promega V2471) used Malachite green and molybdate with spectrophotometric detection of liberated free orthophosphate from test phosphopeptides compared to control and mutant peptides with assessments for the times indicated. Reactions were carried out in a half-area 96-well plate, with three wells dedicated for each time point. To each experimental well, we added a mixture of 18 μL of ultrapure water, 25 μL of running buffer, 1 μL of a 10 mM DMSO solution of the desired peptide, and 1 μL of DMSO containing a desired concentration of flavonoid, or 1 μL DMSO for control experiments. The supplied molybdate dye mixture (50 μL) was added at t=0, followed by 5 μL of a 1:100 dilution of enzyme in the aforementioned dilution buffer. Other wells were initiated via the addition of 5 μL of the diluted enzyme mixture@t=0 and terminated at the desired timepoints by addition of 50 μL of the dye solution. Wells were read@605 nm.

Row | competition for PTPRD phosphatase's hydrolysis of pNPP (human PTPRD phosphatase) | PTPRD's activity in dephosphorylating CDK5 phosphopeptide (positive allosteric modulation) [2] | PTPRD's activity in dephosphorylating GSK3 phosphopeptide (positive allosteric modulation) [2] | Compound | normalized rates of liberation of orthophosphate from pY15CDK5 alanine substitution mutants vs wildtype [2] | further results
1 | competes | – | – | QLVRGEPNVS-pY-ICSRYYRAPE [GSK3 phosphopeptide] | – | liberation of orthophosphate from phosphopeptide by PTPRD's phosphatase [1]: substantial liberation of orthophosphate
2 | competes | – | – | YEKLEKIGEGT-pY-GTVFKAKN [CDK5 phosphopeptide] | – | liberation of orthophosphate from phosphopeptide by PTPRD's phosphatase [1]: rates similar to those found for the generic positive control substrate
3 | – | trend-level | significant | O=c1c(O)c(-c2cc(O)c(O)c(O)c2)oc2cc(O)cc(O)c12 [myricetin] | – | –
4 | inactive | – | – | QLVRGEPNVSYICSRYYRAPE (QLVRGEPNVSSYICSRYYRAPE) [dephospho GSK3β, GSK3α peptide, GSK3β/α wildtype dephosphopeptide] | – | –
5 | inactive | – | – | YEKLEKIGEGTYGTVFKAKN [dephospho CDK5 peptide, CDK5 wildtype dephosphopeptide] | – | –
6 | – | trend-level | significant | O=c1c(O)c(-c2ccc(O)c(O)c2)oc2cc(O)ccc12 [fisetin] | – | –
7 | – | trend-level | significant | O=c1c(O)c(-c2ccc(O)cc2O)oc2cc(O)cc(O)c12 [morin] | – | –

Further lines, the compound ahead of its results:

Row | Compound | competition for PTPRD phosphatase's hydrolysis of pNPP (human PTPRD phosphatase) | PTPRD's activity in dephosphorylating CDK5 phosphopeptide (positive allosteric modulation) [2] | PTPRD's activity in dephosphorylating GSK3 phosphopeptide (positive allosteric modulation) [2] | normalized rates of liberation of orthophosphate from pY15CDK5 alanine substitution mutants vs wildtype [2] | further results
8 | YAKLAKIGAGT-pY-GTVFKAKN [mutant 6] | – | – | – | nominally-significant (6) reductions in activity | –
9 | YEALEKIGEGT-pY-GTVFKAKN [mutant 4] | – | – | – | trends | –
10 | O=c1c(O)c(-c2ccc(O)c(O)c2)oc2cc(O)cc(O)c12 [quercetin] | – | increased | increased | – | stimulation of orthophosphate liberation from phosphopeptides by PTPRD phosphatase, dose-response ([2]; FIG. 9, pYGSK3 and pYCDK5 phosphopeptides): active at micromolar concentrations
11 | YEKLEKIGAGT-pY-GTVFKAKN [mutant 1] | – | – | – | trends | –
12 | YEKLEAIGEGT-pY-GTVFKAKN [mutant 2] | – | – | – | nominally-significant increases in activity | –
13 | YEALEAIGEGT-pY-GTVFKAKN [mutant 7] | – | – | – | nominally-significant increases in activity | –
